Where two headings read alike, the source gives them in different places.

Here are results for two molecules from publication PMC3991817.

Holding throughout (experiment): EMSA
In data set [1] the target is T1, Pax8b (Oncorhynchus mykiss (rainbow trout), UniProt W0S4A0 1-303).
The target of data set [2] is T2, Pax8a (Oncorhynchus mykiss (rainbow trout), UniProt W0S3W1 1-458).
The next data set addresses T3, Nkx2-1 (Rattus norvegicus (rat), UniProt P23441 1-372).
T3 sequence: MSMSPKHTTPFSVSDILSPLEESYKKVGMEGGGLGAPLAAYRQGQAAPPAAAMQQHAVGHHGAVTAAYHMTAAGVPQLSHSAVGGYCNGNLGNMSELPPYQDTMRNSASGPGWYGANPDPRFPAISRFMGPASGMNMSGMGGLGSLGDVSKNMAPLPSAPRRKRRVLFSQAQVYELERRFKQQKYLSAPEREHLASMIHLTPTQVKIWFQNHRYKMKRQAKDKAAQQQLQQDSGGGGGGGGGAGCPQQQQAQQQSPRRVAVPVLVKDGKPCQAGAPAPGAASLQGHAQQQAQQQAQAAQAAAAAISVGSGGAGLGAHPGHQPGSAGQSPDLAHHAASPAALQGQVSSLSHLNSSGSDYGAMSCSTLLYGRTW

The target of data set [3] is T1, Pax8b. This is another data set of the same source.
The target of data set [4] is T2, Pax8a. The source holds these as a separate data set.

B1: oligo B (dsDNA)
DNA 1: GAACCAGGGATTCTTCACACTTCATAGAGCAGCT
DNA 2: AGCTGCTCTATGAAGTGTGAAGAATCCCTGGTTC
As to B1, the binding result with Pax8b [1], with Pax8a [2] and in the data set with Nkx2-1 was “binds” in each case.

B2: oligonucleotide CT (dsDNA)
DNA 1: CTGTCTAAGCTTGAGTGGGCATCA
DNA 2: TGATGCCCACTCAAGCTTAGACAG
As for B2, the binding result in the data set with Pax8b [3] and with Pax8a [4] was “binds” in each case.
